What was measured:
CopY C101A [1] = molecular target: T1, CopY C101A (Streptococcus pneumoniae D39, UniProt A0A0H2ZLC1 1-131, C101A); experiment: fluorescence anisotropy; Zn1 CopY dimer; 40 uM ZnSO4; 0.23 M NaCl; FA: 10 mM HEPES pH 7.0, 0.23 M NaCl, 2 mM TCEP, 40 uM ZnSO4 or 2 mM EDTA, 25 C; EMSA: 10 nM DNA, 25 mM HEPES pH 7.0, 200 mM NaCl, 5 mM MgCl2, 50 ug/mL BSA (apo: 5 mM EDTA), 25 C; details: protein: recombinant; tags: N-terminal His6-TEV, cleaved; three non-native N-terminal residues remain (printed GAM); chain copies: 2; label: 5' fluorescein on strand 1; blunt
CopY C101A [2] = molecular target: T1, CopY C101A; experiment: EMSA; Zn1 CopY dimer; 5 mM MgCl2; 200 mM NaCl; FA: 10 mM HEPES pH 7.0, 0.23 M NaCl, 2 mM TCEP, 40 uM ZnSO4 or 2 mM EDTA, 25 C; EMSA: 10 nM DNA, 25 mM HEPES pH 7.0, 200 mM NaCl, 5 mM MgCl2, 50 ug/mL BSA (apo: 5 mM EDTA), 25 C; details: protein: recombinant; tags: N-terminal His6-TEV, cleaved; three non-native N-terminal residues remain (printed GAM); chain copies: 2; label: 5' fluorescein on strand 1; blunt

B1: 32-bp cop operator (single cop box) (dsDNA)
DNA 1: GTCTATAATTGACAAATGTAGATTTTAAGAGC
DNA 2: GCTCTTAAAATCTACATTTGTCAATTATAGAC
Ka (CopY C101A [1]): 1e+07 M⁻¹ | Ka (CopY C101A [2]): 2e+07 M⁻¹

— article PMC5772342, “Metal-dependent allosteric activation and inhibition on the same molecular scaffold: the copper sensor CopY from Streptococcus pneumoniae† †Electronic supplementary information (ESI) available. See DO”
